Laboratory results from US8367360B2, “Method of screening for inhibitors of tau protein phosphororylation by tyrosine kinase c-Abl” (Proteome Sciences plc, priority 2004, dated 2013).
“Also recorded” adds a separate entry of the source. Blank lines part the entries; values can stand above or below the compound they belong to.

What was measured:
[1] = molecular target: V5 tagged human tau mutant Y18F (human) (UniProt P10636); assay: cell-based or functional assay
[2] = molecular target: V5 tagged human tau mutant Y310F (human) (UniProt P10636); assay: cell-based or functional assay
[3] = system: primary rat neuronal cultures; assay: Amyloid beta treatment of neurons and isolation of lipid rafts; format: cell-based
Procedure: Rat and human primary cortical neuronal cultures were treated with fibrillar Aβ25-35 or Aβ1-42 for 1-30 min. Lipid rafts were prepared from control untreated and Aβ-treated neuronal cultures by scraping the cells from one 80 cm^2 flask into 2 ml 1% Triton X-100 in 25 mM Mes, pH 6.5 containing protease inhibitors. Cells were disrupted by Dounce homgenization. The homogenate was mixed with 2 ml of 90% sucrose (w/v) in 25 mM Mes, 150 mM NaCl pH 6.5 and placed in a 12 ml centrifuge tube. A 5-35% step sucrose gradient was formed by overlaying the homogenate mix with 4 ml of a 35% (w/v) sucrose solution followed by 4 ml of a 5% (w/v) sucrose solution. This was then centrifuged at 39,000 rpm for 18 hr in a Beckman SW41 rotor. 1 ml fractions were collected from the top of each gradient. The lipid raft fraction partitioned at the interface between the 5% (w/v) sucrose layer and the 35% sucrose (w/v) layer, fractions 4 and 5. Lipid raft fractions were concentrated by mixing the raft fractions (4 and 5) with 10 ml dd H2O and centrifuging at 39,000 rpm for 2 h in a Beckman SW41 rotor. The supernatant was aspirated and the remaining pellet was resuspended in 100 μl of 2× sample buffer. Western blots of lipid raft proteins were probed for antibodies to flotillin and protein loading corrected by scanning densitometry. Tau was detected in lipid rafts by probing western blots of lipid raft proteins using a polyclonal anti-tau antibody (DAKO).

[4] = molecular target: V5 tagged human tau mutant Y197F (human) (UniProt P10636); assay: cell-based or functional assay
[5] = molecular target: V5 tagged human tau mutant Y394F (human) (UniProt P10636); assay: cell-based or functional assay
[6] = system: COS-7 cells transfected with V5 tagged human tau; assay: Phosphorylation of tyrosine residues in tau in cultured cells treated with pervanadate; format: cell-based; settings: 20 minutes, Y394-only mutant and wild-type tau
Description: In a first set of experiments, COS-7 cells were transiently transfected with V5 tagged human tau longest isoform or with V5 tagged mutants of tau where one tyrosine has been replaced by one phenylalanine (named Y18F, Y29F, Y197F, Y310F and Y394F) constructs. In a second set of experiments, COS-7 cells were transiently transfected with the V5 tagged tau (441) construct or with V5 tagged mutants of tau where only one tyrosine is remaining, the four other tyrosines being replaced by phenyalanine (named Y18-only, Y29-only, Y197-only, Y310-only and Y394-only according to the remaining tyrosine). In order to increase tau tyrosine phosphorylation, cells were treated with the tyrosine phosphatase inhibitor pervanadate for 20 minutes. Cells were harvested in NETF buffer (100 mM NaCl, 2 mM EGTA, 50 mM Tris-Cl pH 7,4 and 50 mM NaF) containing 1% NP-40, 2 mM orthovanadate and protease inhibitors. Samples were precleared with 40 μl of protein G-Sepharose beads, and immunoprecipitations were carried out with monoclonal anti-V5 antibodies preadsorbed on protein G-Sepharose beads. Cells were harvested in NETF lysis buffer containing 1% NP-40 and tau was immunoprecipitated using an anti-V5 antibody. […] Quantification was achieved by scanning the autoradiograms with GS710 Calibrated Imaging Densitometer (Bio-Rad) and measurement of relative optical density with Quantity One 4.0.3 software (Bio-Rad).

[7] = pre-treatment of neuronal cultures with inhibitor before exposure to Aβ

tyrosine phosphorylation of immunoprecipitated tau (4G10 Western blot), CHO cells co-transfected with Fyn (% of the wild-type control) [1]: 50
tyrosine phosphorylation of immunoprecipitated tau (4G10 Western blot), CHO cells co-transfected with Fyn (% of the wild-type control) [2]: 50
Compound: Fyn tyrosine kinase (expressed from Fyn cDNA in CHO cells) (from UniProt P06241 1-537) (enzyme)

Compound: Aβ1-42: fibrillar amyloid β-peptide 1-42 used to treat neurons
tyrosine phosphorylation of neuronal protein components of lipid rafts ([3]; peptide treatment of primary rat neuronal cultures): rapid increase

tyrosine phosphorylation of immunoprecipitated tau (4G10 Western blot), CHO cells co-transfected with AblΔXB (% of the wild-type control) [4]: 70
tyrosine phosphorylation of immunoprecipitated tau (4G10 Western blot), CHO cells co-transfected with AblΔXB (% of the wild-type control) [2]: 70
tyrosine phosphorylation of immunoprecipitated tau (4G10 Western blot), CHO cells co-transfected with AblΔXB (% of the wild-type control) [5]: 25
Compound: AblΔXB (a constitutively active form of Abl, with deletion of most of the SH3 domain) (enzyme)

Compound: pervanadate
tyrosine phosphorylation of tau (4G10 western on immunoprecipitated tau) [6]: induces an increase in tyrosine phosphorylation

Compound: CC(C)(C)n1nc(-c2ccc(Cl)cc2)c2c(N)ncnc21 [PP2]
Aβ-induced increase in tyrosine phosphorylation of lipid raft proteins ([3]; inhibitor given with Aβ treatment, primary rat neuronal cultures, western blot of lipid rafts): abrogated
Aβ-induced recruitment of Fyn to lipid rafts [3, 7]: blocking of the recruitment
Aβ-induced recruitment/partitioning of tau into lipid rafts [3, 7]: abrogated; also recorded: blocking of the recruitment
